From patent US6034212, “SH3 kinase domain associated protein, a signalling domain therein, nucleic acids encoding the protein and the domain, and diagnostic and therapeutic uses thereof” (The Rockefeller University, dated 2000) come the findings set out here.

Test [1] addresses GST alone (Schistosoma japonicum (Blood fluke), UniProt P08515 = GST, 32P-labelled when used as probe in Example 5). The experiment in a line: Western ligand blot on TrpE-YAP65.
Test [2] has as its target T1, GST-SH3-Yes fusion protein (Gallus gallus (Chicken), UniProt P09324, 35S-methionine labeled when used as probe). The experiment in a line: membrane binding assay, radioactively labeled TrpE-YAP65 on blotted GST fusions. The method, then:
(§1) FIG. 5. Binding between YAP65 and Yes in vitro. (A) TrpE-YAP65 fusion protein (2,4,5,6,7) or TrpE alone (1,3) were probed on Western blots with ^35S-methionine labeled GST-Yes-SH3 alone (2) or with radioactive GST-Yes-SH3 supplemented with 10 µM of cold GST-Yes-SH3 (4); Lane 5 is as in lane 2 but the incubation was in the presence of SPLAP peptide (200 µM); lanes 6 and 7, the binding was competed with 50 µM and 200 µM of the PLAP peptide, respectively. The arrow indicates partially purified TrpE-YAP65 fusion protein. Lower migrating protein bands represent products of proteolytic degradation. Even if an increased concentration of protease inhibitors and careful purification protocols were used, we always observed limited degradation of the TrpE-YAP65 protein. Equal amounts (8 µg) of TrpE-fusion protein or TrpE protein were loaded into each lane of the SDS-polyacrylamide gel and transferred to nitrocellulose. […]
To perform reciprocal binding and to estimate the relative specificity of YAP65 binding to other proteins that contain SH3 domains, we probed the purified GST fusion proteins of Nck, Crk, Src, Abl and GAP with radioactively labeled Trp-E-YAP65 protein. The same amount of protein was analyzed in a membrane binding assay; TRPE-YAP-65 bound the strongest to Nck and Yes followed by Crk, and Src. […]

Test [3] addresses T1, GST-SH3-Yes fusion protein. The experiment in a line: competition of labeled GST-YES-SH3 binding to blotted TrpE-YAP65 by the scrambled peptide. The method, then: as §1, with “nitrocellulose. (B) Differential binding of ^35S-labeled TrpE-YAP65 fusion protein to various fusion proteins containing SH3 domains. Before the Western transfer, we had loaded equal amounts (1 µg) of purified proteins into each lane of the SDS gel. An SDS-polyacrylamide gel was run in parallel and stained with Coomassie Blue to confirm equal concentrations of the purified proteins.” for “nitrocellulose.”

B1: TrpE-YAP65 fusion protein (other)
chain: MQTQKPTLELLTCEGAYRDNPTALFHQLCGDRPATLLLESADIDSKDDLKSLLLVDSALRITALGDTVTIQALSGNGEALLALLDNALPAGVESEQSPNCRVLRFPPVSPLLDEDARLCSLSVFDAFRLLQNLLNVPKEEREAMFFGGLFSYDLVAGFEDLPQLSAENNCPDFCFYLAETLMVIDHQKKSTRIQASLFAPNEEEKQRLTARLNELRQQLTEAAPPLPVVSVPHMRCECNQSDEEFGGVVRLLQKAIRAGEIFQVVPSRRFSLPCPSPLAAYYVLKKSNPSPYMFFMQDNDFTLFGASPESSLKYDATSRQIEIPASLQLGAVSPGTLTPSGVVTGPGAPSSQHLRQSSFEIPDDVPLPPGWEMAKTPSGQRYFLNHIDQTTTWQDPRKAMLSQMNVTAPTSPPVQQNLMNSASAMNQRISQSAPVKQPPPLAPQSPQGGVMGGSSSNQQQQMRLQQLQMEKERLRLKHQELLRQELALRSQLPTMEQDGGSQNPVSSPGMSQELRTMTTNSSDPFLNSGTYHSRDESTDSGLSMSSYSVPRTPDDFLNSVDEMDTGDSISQSNIPSHQNRFPDYLEAIPGTNVDLGTLEGDGMNIEGEELMPSLQEALSSDILNDMES
modifications: 35S-labeled when used as probe
Take B1: the binding result in test [1] is “no binding”; in test [2], “binds”.

B2: SPLAP peptide (peptide)
peptide: VQPAQLSIPGPVSPQPKGQSPA
For B2, the binding result in test [3] is recorded as “no binding (tested: 200 µM)”.
